We go through 76 variants from the RNAGym collection of RNA variant scans (doi:10.7554/elife.80360).

B1: Hairpin Ribozyme (parent)
chain: GUCCUCUUUCACGUGCGCGUGAAAGAGAGAAGUGAACCAGAGAAACACACGUUGUGGUAUAUUACCUGGUA

In the data set the parent is B1. As to the kind of experiment: self-cleavage, relative activity (ratio to wild type); higher = more cleavage; co-transcriptional.
Regarding GUCCUCUUUCACGUGCGCGUGAAAGAGAGAAGGGAACCAGAGAAACACCCGUUGUGGUAUAUUACCUGGUA, the self-cleavage was 0.114.

GUCCUCUUUCACGUGCGCGUGAAAGAGAGAAGGGAACCAGAGAAACACGCGUUGUGGUAUAUUACCUGGUA: the self-cleavage worked out at 0.135.

As for GUCCUCUUUCACGUGCGCGUGAAAGAGAGAAGCGAACCAGAGAAACACACGAUGUGGUAUAUUACCUGGUA, the self-cleavage worked out at 0.162.

Regarding GUCCUCUUUCACGUGCGCGUGAAAGAGAGAAGCGAACCAGAGAAACACACGGUGUGGUAUAUUACCUGGUA, the self-cleavage amounted to 0.1.

Regarding GUCCUCUUUCACGUGCGCGUGAAAGAGAGAAGCGAACCAGAGAAACACACGUUGGGGUAUAUUACCUGGUA, the self-cleavage is 0.418.

Take GUCCUCUUUCACGUGCGCGUGAAAGAGAGAAGAGAACCAGAGAAACACACGUUGUGGUAGAUUACCUGGUA: the self-cleavage came out at 0.0384.

GUCCUCUUUCACGUGCGCGUGAAAGAGAGAAGAGAACCAGAGAAACACACGUUGUGGUACAUUACCUGGUA: the self-cleavage is 0.263.

GUCCUCUUUCACGUGCGCGUGAAAGAGAGAAGAGAACCAGAGAAACACACGAUGUGGUAUAUUACCUGGUA: the self-cleavage amounted to 0.122.

For the variant GUCCUCUUUCACGUGCGCGUGAAAGAGAGAAGCGAACCAGAGAAACACACGUUGUGGUAUAUUAACUGGUA, the self-cleavage worked out at 0.159.

GUCCUCUUUCACGUGCGCGUGAAAGAGAGAAGCGAACCAGAGAAACACACGUUGUGGUAUAUUAGCUGGUA: the self-cleavage was found to be 0.138.

On to GUCCUCUUUCACGUGCGCGUGAAAGAGAGAAGCGAACCAGAGAAUCACACGUUGUGGUAUAUUACCUGGUA, for which the self-cleavage came out at 0.15.

GUCCUCUUUCACGUGCGCGUGAAAGAGAGAAGCGAACCAGAGAACCACACGUUGUGGUAUAUUACCUGGUA: the self-cleavage was determined as 0.124.

GUCCUCUUUCACGUGCGCGUGAAAGAGAGAAGCGCACCAGAGAAACACACGUUGUGGUAUAUUACCUGGUA: the self-cleavage is 0.12.

With GUCCUCUUUCACGUGCGCGUGAAAGAGAGAAGCGGACCAGAGAAACACACGUUGUGGUAUAUUACCUGGUA, the self-cleavage turned out to be 0.192.

Regarding GUCCUCUUUCACGUGCGCGUGAAAGAGAGAAGCGAACCUGAGAAACACACGUUGUGGUAUAUUACCUGGUA, the self-cleavage stood at 0.0555.

On to GUCCUCUUUCACGUGCGCGUGAAAGAGAGAAGCGAACCAGAGAAACACACGUUGUGGUAUGUUACCUGGUA, for which the self-cleavage worked out at 0.0977.

Consider GUCCUCUUUCACGUGCGCGUGAAAGAGAGAAGCGAACCAGAGAAACACACGUUGUGGUAUAUUACCAGGUA, for which the self-cleavage came out at 0.119.

GUCCUCUUUCACGUGCGCGUGAAAGAGAGAAGCGAACCAGAGAAACACACGUUGUGGUAUAUUACCCGGUA: the self-cleavage is 0.129.

For the variant GUCCUCUUUCACGUGCGCGUGAAAGAGAGAAGGGAACCAGAGAAACACACGUUGUGGUAUCUUACCUGGUA, the self-cleavage worked out at 0.041.

With GUCCUCUUUCACGUGCGCGUGAAAGAGAGAAGCGAACCAGAGAAACACACGUUGUGGUAUAUUACCUGAUA, the self-cleavage turned out to be 0.0835.

As for GUCCUCUUUCACGUGCGCGUGAAAGAGAGAAGCGAACCAGAGAAACACACGUUGUGGUAUAUUACCUGCUA, the self-cleavage was determined as 0.114.

In the case of GUCCUCUUUCACGUGCGCGUGAAAGAGAGAAGGUAACCAGAGAAACACACGUUGUGGUAUAUUACCUGGUA, the self-cleavage is 0.0449.

For the variant GUCCUCUUUCACGUGCGCGUGAAAGAGAGAAGCGAACCAGAGGAACACACGUUGUGGUAUAUUACCUGGUA, the self-cleavage stood at 0.196.

For the variant GUCCUCUUUCACGUGCGCGUGAAAGAGAGAAGGGGACCAGAGAAACACACGUUGUGGUAUAUUACCUGGUA, the self-cleavage stood at 0.126.

GUCCUCUUUCACGUGCGCGUGAAAGAGAGAAGCAAACCAGAGAAACACACGUUGUGGUAUAUUACCUGGUA: the self-cleavage came out at 0.142.

As for GUCCUCUUUCACGUGCGCGUGAAAGAGAGAAGCCAACCAGAGAAACACACGUUGUGGUAUAUUACCUGGUA, the self-cleavage turned out to be 1.28.

For GUCCUCUUUCACGUGCGCGUGAAAGAGAGAAGAGAACCAGAGAAACACACGUUGUGGUAUAUUACCUGCUA, the self-cleavage is 0.124.

For the variant GUCCUCUUUCACGUGCGCGUGAAAGAGAGAAGAGAACCAGAGAAACACACGUUGUGGUAUAUUACCUGAUA, the self-cleavage worked out at 0.0983.

On to GUCCUCUUUCACGUGCGCGUGAAAGAGAGAAGAGAACCAGAGAAACACACGUUGUGGUAUAUUACCUGUUA, for which the self-cleavage is 0.134.

Take GUCCUCUUUCACGUGCGCGUGAAAGAGAGAAGAGAACCAGAGAAACACACGUUGUGGUAUAUCACCUGGUA: the self-cleavage amounted to 0.0601.

With GUCCUCUUUCACGUGCGCGUGAAAGAGAGAAGGGAACCGGAGAAACACACGUUGUGGUAUAUUACCUGGUA, the self-cleavage was determined as 0.119.

Regarding GUCCUCUUUCACGUGCGCGUGAAAGAGAGAAGGGAACCUGAGAAACACACGUUGUGGUAUAUUACCUGGUA, the self-cleavage came to 0.0926.

Consider GUCCUCUUUCACGUGCGCGUGAAAGAGAGAAGGGAACCAGAGAAACACAAGUUGUGGUAUAUUACCUGGUA, for which the self-cleavage turned out to be 0.123.

For GUCCUCUUUCACGUGCGCGUGAAAGAGAGAAGGGAACCAGAGAAACACAUGUUGUGGUAUAUUACCUGGUA, the self-cleavage is 0.14.

On to GUCCUCUUUCACGUGCGCGUGAAAGAGAGAAGCGAACCAGAGAAACACACGUUGUUGUAUAUUACCUGGUA, for which the self-cleavage is 0.26.

For the variant GUCCUCUUUCACGUGCGCGUGAAAGAGAGAAGCGAACCAGAGAAACACACGUUGUGGUAUAUUACCUGGUC, the self-cleavage turned out to be 0.63.

GUCCUCUUUCACGUGCGCGUGAAAGAGAGAAGCGAACCAGAGAAACACACGUUGUGGUAUAUUACCUGGUG: the self-cleavage is 0.241.

On to GUCCUCUUUCACGUGCGCGUGAAAGAGAGAAGAGAACCAGAGAAACACACGUUGUGGUAUAUUACCUGGCA, for which the self-cleavage amounted to 0.119.

Take GUCCUCUUUCACGUGCGCGUGAAAGAGAGAAGAGAACCAGAGAAACACACGUUGUGGUAUAUUACCUGGGA: the self-cleavage turned out to be 0.253.

Turning to GUCCUCUUUCACGUGCGCGUGAAAGAGAGAAGCGAACCAGAGAAACACACGUAGUGGUAUAUUACCUGGUA, the self-cleavage was 0.198.

For the variant GUCCUCUUUCACGUGCGCGUGAAAGAGAGAAGCGAACCAGAGAAACACACGUUGUGAUAUAUUACCUGGUA, the self-cleavage turned out to be 0.242.

In the case of GUCCUCUUUCACGUGCGCGUGAAAGAGAGAAGCGAACCAGAGAAACCCACGUUGUGGUAUAUUACCUGGUA, the self-cleavage is 0.106.

As for GUCCUCUUUCACGUGCGCGUGAAAGAGAGAAGGGAACCAGAGAAACCCACGUUGUGGUAUAUUACCUGGUA, the self-cleavage came out at 0.0542.

Turning to GUCCUCUUUCACGUGCGCGUGAAAGAGAGAAGCGACCCAGAGAAACACACGUUGUGGUAUAUUACCUGGUA, the self-cleavage was 0.199.

With GUCCUCUUUCACGUGCGCGUGAAAGAGAGAAGCGAUCCAGAGAAACACACGUUGUGGUAUAUUACCUGGUA, the self-cleavage worked out at 0.0847.

For GUCCUCUUUCACGUGCGCGUGAAAGAGAGAAGGGAACCAGAUAAACACACGUUGUGGUAUAUUACCUGGUA, the self-cleavage came out at 0.153.

GUCCUCUUUCACGUGCGCGUGAAAGAGAGAAGCGAACCAGAGAAACACACGUUGUGGUAUAUUACCUUGUA: the self-cleavage stood at 0.258.

For GUCCUCUUUCACGUGCGCGUGAAAGAGAGAAGCGAACCAGAGAAACACACGUUGUGGUAUAUUACCUAGUA, the self-cleavage was found to be 0.104.

As to GUCCUCUUUCACGUGCGCGUGAAAGAGAGAAGCGAACAAGAGAAACACACGUUGUGGUAUAUUACCUGGUA, the self-cleavage worked out at 0.087.

On to GUCCUCUUUCACGUGCGCGUGAAAGAGAGAAGCGAACCAGAGAAACACACAUUGUGGUAUAUUACCUGGUA, for which the self-cleavage came to 0.231.

Regarding GUCCUCUUUCACGUGCGCGUGAAAGAGAGAAGCGAACCAGAGAAACACACUUUGUGGUAUAUUACCUGGUA, the self-cleavage came out at 0.144.

Turning to GUCCUCUUUCACGUGCGCGUGAAAGAGAGAAGAGAACCAGAGAAACACACGUUGUGGUAUAUUACCAGGUA, the self-cleavage came to 0.0848.

As for GUCCUCUUUCACGUGCGCGUGAAAGAGAGAAGGGAACCAGAGAAACACACAUUGUGGUAUAUUACCUGGUA, the self-cleavage is 0.118.

As to GUCCUCUUUCACGUGCGCGUGAAAGAGAGAAGGGAUCCAGAGAAACACACGUUGUGGUAUAUUACCUGGUA, the self-cleavage is 0.129.

Take GUCCUCUUUCACGUGCGCGUGAAAGAGAGAAGGGAACCAGAGAAACACACGUUGUGGUAUAUUACUUGGUA: the self-cleavage was determined as 0.21.

On to GUCCUCUUUCACGUGCGCGUGAAAGAGAGAAGCGAACCAGAAAAACACACGUUGUGGUAUAUUACCUGGUA, for which the self-cleavage turned out to be 0.0915.

Regarding GUCCUCUUUCACGUGCGCGUGAAAGAGAGAAGCGAACCAGAGACACACACGUUGUGGUAUAUUACCUGGUA, the self-cleavage was determined as 0.226.

Regarding GUCCUCUUUCACGUGCGCGUGAAAGAGAGAAGAGAACCAGAGAAACACACGUUGCGGUAUAUUACCUGGUA, the self-cleavage was determined as 0.149.

Regarding GUCCUCUUUCACGUGCGCGUGAAAGAGAGAAGGGAACCAGAGAAACACACGUUGUGGUAUAUUGCCUGGUA, the self-cleavage stood at 0.108.

Turning to GUCCUCUUUCACGUGCGCGUGAAAGAGAGAAGGGAACCAGAGAAAGACACGUUGUGGUAUAUUACCUGGUA, the self-cleavage amounted to 0.174.

As for GUCCUCUUUCACGUGCGCGUGAAAGAGAGAAGCGAACCAGAGAAACACACGUUGUGGUAUAUCACCUGGUA, the self-cleavage was 0.187.

In the case of GUCCUCUUUCACGUGCGCGUGAAAGAGAGAAGCGAACCAGAGAAACACACGUUGUGGUAUAUUACAUGGUA, the self-cleavage was 0.0633.

Consider GUCCUCUUUCACGUGCGCGUGAAAGAGAGAAGGGAAUCAGAGAAACACACGUUGUGGUAUAUUACCUGGUA, for which the self-cleavage was 0.267.

GUCCUCUUUCACGUGCGCGUGAAAGAGAGAAGGGAAGCAGAGAAACACACGUUGUGGUAUAUUACCUGGUA: the self-cleavage was determined as 0.064.

Consider GUCCUCUUUCACGUGCGCGUGAAAGAGAGAAGGGAAACAGAGAAACACACGUUGUGGUAUAUUACCUGGUA, for which the self-cleavage amounted to 0.109.

In the case of GUCCUCUUUCACGUGCGCGUGAAAGAGAGAAGCGAACCAGAGAAACAAACGUUGUGGUAUAUUACCUGGUA, the self-cleavage worked out at 0.0642.

Take GUCCUCUUUCACGUGCGCGUGAAAGAGAGAAGCGAACCAGAGAAACAGACGUUGUGGUAUAUUACCUGGUA: the self-cleavage was 0.227.

With GUCCUCUUUCACGUGCGCGUGAAAGAGAGAAGGGAACCAGAGCAACACACGUUGUGGUAUAUUACCUGGUA, the self-cleavage was 0.0935.

On to GUCCUCUUUCACGUGCGCGUGAAAGAGAGAAGGGAACCAGAGUAACACACGUUGUGGUAUAUUACCUGGUA, for which the self-cleavage was determined as 0.0768.

Regarding GUCCUCUUUCACGUGCGCGUGAAAGAGAGAAGCGAACCAGAGAAACACACGUUGUGGUAUAUUGCCUGGUA, the self-cleavage was 0.0772.

Take GUCCUCUUUCACGUGCGCGUGAAAGAGAGAAGCGAACCAGAGAAACACACGUUGUGGUAUAUUCCCUGGUA: the self-cleavage turned out to be 0.102.

For the variant GUCCUCUUUCACGUGCGCGUGAAAGAGAGAAGCGAACCAGGGAAACACACGUUGUGGUAUAUUACCUGGUA, the self-cleavage was 0.193.

As to GUCCUCUUUCACGUGCGCGUGAAAGAGAGAAGGGAACCAGAGAAACACACGUUGUGGUAUAUUACCUGGUG, the self-cleavage worked out at 0.184.

As for GUCCUCUUUCACGUGCGCGUGAAAGAGAGAAGGGAACCAGGGAAACACACGUUGUGGUAUAUUACCUGGUA, the self-cleavage amounted to 0.0864.

Regarding GUCCUCUUUCACGUGCGCGUGAAAGAGAGAAGCGAACCAAAGAAACACACGUUGUGGUAUAUUACCUGGUA, the self-cleavage came to 0.0908.

Take GUCCUCUUUCACGUGCGCGUGAAAGAGAGAAGCGAACCAUAGAAACACACGUUGUGGUAUAUUACCUGGUA: the self-cleavage stood at 0.121.
